# Assay results from patent US20040018971A1.
# Target: HLA-A*2401 (human)
# Assay: inhibition of 125I probe peptide binding to purified HLA; IC50 standard/IC50 test
row,relative binding ratio,Binder
1,0.025,RWGLLLAL [HER2/neu 8-15]
2,0.0005,DFGLARLL [HER2/neu 863-870]
3,0.0039,AFDNLYYW [HER2/neu 1216-1223]
4,-0.0003,EYHADGGKVPI [HER2/neu 876-886]
5,0.0011,AFSPAFDNL [HER2/neu 1212-1220]
6,0.0024,KYTMRRLL [HER2/neu 684-691]
7,0.0002,LFRNPHQAL [HER2/neu 485-493]
8,0.018,CYGLGMEHL [HER2/neu 342-350]
9,0.0006,LFEDNYALAVL [HER2/neu 107-117]
10,1.3,RWGLLLALL [HER2/neu 8-16]
11,0.13,AYSLTLQGL [HER2/neu 440-448]
12,0.023,AYSLTLQGLGI [HER2/neu 440-450]
13,0.018,SMPNPEGRYTF [HER2/neu 281-291]
14,0.0061,EYVNARHCL [HER2/neu 553-561]
15,-0.0003,EFAGCKKI [HER2/neu 363-370]
16,-0.0003,CMQIAKGMSYL [HER2/neu 826-836]
17,0.0005,PYDGIPAREI [HER2/neu 922-931]
18,0.0044,GYLYISAW [HER2/neu 408-415]
19,0.018,RFRELVSEF [HER2/neu 968-976]
20,0.0036,SWLGLRSLREL [HER2/neu 451-461]
21,0.12,SYGVTVWEL [HER2/neu 907-915]
22,0.0003,EFAGCKKIF [HER2/neu 363-371]
23,0.015,KWMALESIL [HER2/neu 887-895]
24,0.0027,IWIPDGENVKI [HER2/neu 738-748]
25,0.0002,RFVVIQNEDL [HER2/neu 985-994]
26,-0.0003,IFHKNNQL [HER2/neu 172-179]
27,0.001,AFGTVYKGIW [HER2/neu 730-739]

row,relative binding ratio,Binder
1,0.0014,EYLVPQQGF [HER2/neu 1022-1030]
2,0.0011,PMCKGSRCW [HER2/neu 197-205]
3,0.0032,RMARDPQRF [HER2/neu 978-986]
4,0.0002,DFGLARLLDI [HER2/neu 863-872]
5,0.0002,AFGTVYKGI [HER2/neu 730-738]
6,-0.0003,SWLGLRSLR [HER2/neu 451-459]
7,0.084,LYISAWPDSL [HER2/neu 410-419]
8,0.0016,CYQDTILWKDI [HER2/neu 162-172]
9,0.011,RFTHQSDVW [HER2/neu 898-906]
10,0.0002,HFNHSGICEL [HER2/neu 257-266]
11,0.0041,AWPDSLPDL [HER2/neu 414-422]
12,0.012,EYLVPQQGFF [HER2/neu 1022-1031]
13,0.17,PYVSRLLGI [HER2/neu 780-788]
14,-0.0003,GMGAAKGL [HER2/neu 1091-1098]
15,0.008,KWMALESI [HER2/neu 887-894]
16,0.0076,LMPYGCLL [HER2/neu 800-807]
17,0.012,IFGSLAFL [HER2/neu 370-377]
18,0.012,CYQDTILW [HER2/neu 162-169]
19,0.019,CFVHTVPW [HER2/neu 475-482]
20,0.0014,LFRNPHQALL [HER2/neu 485-494]
21,0.012,RYSEDPTVPL [HER2/neu 1111-1120]
22,0.0059,SYLEDVRL [HER2/neu 834-841]
23,0.0008,AFGTVYKGIWI [HER2/neu 730-740]
24,0.0003,CFVHTVPWDQL [HER2/neu 475-485]
25,0.0006,LFEDNYAL [HER2/neu 107-114]
26,0.021,IMVKCWMI [HER2/neu 954-961]
27,-0.0003,GMGAAKGLQSL [HER2/neu 1091-1101]
